Measured values reported in the DeepSol protein solubility set.

Assay: soluble on expression in E. coli; label from the status in PepcDB or PDB records

Sequence	soluble on expression in E. coli
MGSDKIHHHHHHMQFDPPLQPAILLKRYKRFLADVVTPDGRELTLHCPNTGAMTGCAAPGDTVWYSTSDNAKRKYAHTWELTETQQGAVICVNTLRANSLAKEAISAGIIPELSGYNQLKSEVKYGEENSRIDIMLQADDRQNCYIEVKSVTLAEKEYGYFPDAVTTRGQKHLRELMAVAANGDRAVILFAVLHSAIDRFSPAHHIDARYAQLLTEAQDKGVEILAWKAELSTTRMTLNKPIAVVLNPGK	not soluble
SNAMKELIKEHQKDINPALQLHDWVEYYRPFAANGQSANYIPALGKVNDSQLGICVLEPDGTMIHAGDWNVSFTMQSISKVISFIAACMSRGIPYVLDRVDVEPTGDAFNSIIRLEINKPGKPFNPMINAGALTIASILPGESAYEKLEFLYSVMETLIGKRPRIHEEVFRSEWETAHRNRALAYYLKETNFLEAEVEETLEVYLKQCAMESTTEDIALIGLILAHDGYHPIRHEQVIPKDVAKLAKALMLTCGMYNASGKYAAFVGVPAKSGVSGGIMALVPPSARREQPFQSGCGIGIYGPAIDEYGNSLTGGMLLKHMAQEWELSIF	soluble
MISRVAQMYFSEHKRQAEIAQHLNLSQATVSRMLKRAEAEGIVRTSIIPPPGTYSDLEAQLRERFDLPEAIVVDCSEDRDGAIMARIGEAAAHFLEVTLSQNEIIGVSSWSQTIFKMVENIHPLKGAKARYIVQTLGGMGDPSVQTHATQITTRLARLTEAEPKLLPVPGVATSREAKLLMLADPFVRETIDLFGSITLAIVGVGAVEPSELLARSGNIFSTKELADLAQAGAVGDISLRFFDKDGKPVKTPLDDRVIGLPLENLSNVDRVIALAGGLKKTEAIAGALRTGVIDVLVTDKFTAERLVGQET	not soluble
MSLEAIHRSTRIEFSKSSLAYNVQYTKQVSGAKTLWLAVKSNAYGHGLLQVSKIARECGVDGLAVSVLDEGIAIRQAGIDDFILILGPIDVKYAPIASKYHFLTTVSSLDWLKSADKILGKEKLSVNLAVDTGMNRIGVRSKKDLKDEIEFLQEHSDHFSYDGIFTHFASSDNPDDHYFQRQKNRWYELIDGLIMPRYVHVMNSGAAMYHSKELPGCNSIARVGTVVYGVEPSEGVLGPIDKLKPVFELKSALTFVKKIPAGEGISYGSKFVTSRDTWIGTLPIGYGDGWLAEYQDFQLLIDGQKCRQVGQIAMDQMMVALPHEYPIGTEVTLIGKSGKYENTLYDLHKHSGVPPWKITVAFSDRLKRMVVDEGHHHHHH	soluble
MGSSHHHHHHSSGLVPRGSNLKIKLQKRRDEVNTCLCIGLDPDEADIKSFMQSEKQNGYQSVKKNLSNSGSSSSSSNSSSGKGELFAPQMGGQMLLAETPPKEAQEKDEFFYFFNHFCFYIINETKEYALAYKMNFAFYLPYGSLGVDVLKNVFDYLHHLNVPTILDIKMNDIGNTVKHYRKFIFDYLRSDSCTANIYMGTQMLRDICLDEECKRYYSTFVLVKTTNADSHIFQNRLSLDGKEAYVVIAEEVQKMAKQLHLEENGEFVGFVVGANCYDEIKKIRELFPDCYILAPGVGAQKGDLRKMLCNGYSKNYEKVLINVGRAITKSGSPQQAAREYHQQIKEVLAELQE	soluble
RPNVERDAQRRVNIRVTDEIVTALNERRIVMAFEPVVQAVSRAPAFHECLVRMKQDDGELLLAPDIVPVAEKLGLIRLVDHRVLELVVAELAAAPGVELSLNISPDTTMDADWWASIESLLGANPGVAERLIVEITETVAIQDLDDVRGFVNRLKNFGARIAIDDFGAGYTSFRNLRNLGVDIVKIDGAFVQNIARSADDRAFVQTLIDLARRLEIKTVAEWVQDEASAIMLRDWGCDYIQGRLIGLA	not soluble
MGHHHHHHSHMNIQKDGKNVTSRREWIEKLVESKGKVDIEELASHFGVSSMTIRRDLMHLEEHNKLIRTHGGAVAPSSLIGETPYAQKQTEHLMEKQLIAKQASTLVPEGATILVDSGTTTLELIKLLKDRNDLTIVTNDITIAAELVNASPKCIVTGGELQLGVGALFGPQTEGMIRELHVDLFFLGAHAVDEAAGVTAPTLEKAAIKKRMMEAAQTTWLICDSSKFSKRAFANVCQLTKLEGIITDANFLTSFKHENYHDNMVIAQA	soluble
MSNLDNPGIYYQERFFANDGVPDTGRELIAEYRQLITQFRNFIRDFSTGGFGMIYRDQLKRNYFSHEYRLEINLNHLKNFDEDIEMKLRKFPGKVLPALEEAAKIVADEITTPRPKGEEKLHDIQVTLTLDEYPTSLRQVKSAQVSQVVKISGIIVAAAQVRSKATKVTLQCRQCKHTIPDVSIKPGLEGFALPRTCAAPQQGQMQRCPIDPYIMLPDKCECVDYQTLKLQENPEDVPHGEMPRHLQLFTERYLTDKVVPGNRVTIVGVYSIKKLIQKKGGDKSLQGIRTPYLRVLGIHMETSGPGRTNFTTFTPEEERMFKTLAQRKDAYELIAKSIAPSIYGSADIKKSIACLLFGGARKKLPDGITRRGDINVLLLGDPGTAKSQLLKFVEQVSPIGVYTSGKGSSAAGLTASVIRDPQSRSFIMEGGAMVLADGGVVCIDEFDKMREDDRVAIHEAMEQQTISIAKAGITTTLNSRCSVLAAANSVYGRWDESRGDDNIDFMPTILSRFDMIYIVKDTHDVLKDATLAKHVIEVHVNASAAKERDIAGVPKTATTDSDGVMTMFDTDGFLTIEFLKKFVTYARLNCGPRLTPQASEKLVNHYVKMRNPVVNADAFKSGKKAHNSAIPITVRQLEAIVRIAESIAKMELQQFATDKHVEEALRLFRVSTIEAAATGNLAGVEGFTSTADQEALNRIEVQMKKRFAIGTHVSEHLIVQDFVARQHYRESLVKKVIDNLVRRGDLQQKMQRKMLYRVR	not soluble
MVEIYLFVNPLGGVCLEIEKEIIQLSVNDKKKIQLRFIPLLNMKTINEFLSRQHIPINDIKRRNRIFEDLYSAALDYKAAQLQGRKKGRQLLIGLQKAVAEDGLAYSPELSEELLLAAGGDIDMYRKDRQSDFVKESFQTDQKVAREMGIKQHPTAVVYNYTCENDFGILVENFENMDEIKQLCRVHPHNEPLLNQGDATFEFKRRSNYHFPNGHLHLL	not soluble
MGSDKIHHHHHHMSATKIDAVYLDADVTAYKGNPFIEALPPLQESVNSAAALRSTSLFDASDLQKPRVVRAHSICRITNDFFQPLGSHMLLSERVSLMIRGGYVGRNPKTGDLQRHLQNGYERVQSGDLSSFRFEEAKSTAQSMLLIGCSGSGKTTSLARILDTYPQVIYHPTMNFEQVVYLKVDCSHNGSLKEICLNFFRALDKALGSNYEKKYGLKRNGIETMLALMAQIANAHAVGLLVIDEIQHLSRAKSGGPEAMLNFFVTMVNTIGVPVMLIGTPKAREIFEIDLRSARRGSGLGAIFWEPMKQGPNGKRNPEWAAFTDNLWKQQLLQSKDLVLTDDLRDLWYDLSQGVMDTVVKLFVLSQLRALALGKERLTPGLMKQVYKDELKPVHPMLEALRSGVPEKIAQYSDLMLPEMDKRLIQLQRDIAGMKVETPEELALKQLATDDERRIYLMLKDDYDSSLLVATVRKAFAENPKLTRPQLLPVILNWLSDTDNPVKPEQPKTQVKNTKPDQWDTLDWDDLRYISSQQQSAAAMHSALGTKGLLFDLRRRMT	not soluble
MAKYFGTDGIRGEVANSTITVEFTQKLGNAVGSLINQKNYPKFVIVGQDTRSSGGFLKFALVSGLNAAGIDVLDLGVVPTPVVAFMTVKHRAAAGFVITASHNKFTDNGIKLFSSNGFKLDDALEEEVEDMIDGDFIYQPQFKFGSYKILANAIDEYIESIYSRFAKFVNYKGKVVVDCAHGAASHNFEALLDKFGINYVSIASNPDGLNINVGCGATCVSNIKKAVKEQKADLGISLDGDADRIIIVDENGQEIDGDGILNILAQYSDICGGTNGIVGTQMTNMSYENHYRANKIPFIRSKVGDRYVLEDLVKYGYKIGGESSGHVINLNFGTTGDGLFTAIQLLAIFSQADKPVSEFKLQGELMQQTLINVPLTKKVAREDLQKVASDVNDVEKRLGNRGRVLLRPSGTEPVLRVMVEADDKSLATNEAEYLVEKVKQKLV	soluble
MARSITMQQRIEFGDCNPAGIVWYPNYHRWLDAASRNYFIKCGLPPWRQTVVERGIVGTPIVSCNASFVCTASYDDVLTIETCIKEWRRKSFVQRHSVSRTTPGGDVQLVMRADEIRVFAMNDGERLRAIEVPADYIELCS	soluble
MSLSLVSQYIDLTEHFQNLIAVILKNPEKVWQMQLNYLEDALSLAQAQFNYWLEGKPLPINDQRFNGEDWINNPFFNLLSQHYLLANEHMNSLLENMEYGDENLAKRVRFFTRQYLDALSPANFIHTNPQLMAETLQSHGKNLLRGLHNLLSDVEAGSSRLIIKMTDTEAFKIGENLATTPGKVIFRNSMMELIQYCPRTTKAKSIPLLIVPPWINKYYILDLSPHNSLIRWLVEQGITVFIISWVNPDETYANKSFYDYLNEGPREAISVIQKQLRVKQVNTLGFCIGGTLLASLLAYNKATKDLSIRSATFLAAMIDFSDPGDIAVFIDEQQINKLEEEMKSKGYLAGKFMASSFNSLRANDLIWSFFIKNYLRGKSPVPFDILYWNADSTNMPATMHSQYLRWMYLHNNLIKPGKIRLNHIPVDVTNIDIPTFFLSTQKDHIAPWKTTYKGFELMKGPKRFVLGGSGHIAGIINPPTQQKYGYRTNNSMDLSAEQWFEKSKEHSGSWWPEWLNWLKLHSGRLINAPDINHLPFAPIMDAPGSYVLKKEGHHHHHH	soluble
GEDKKGGTKPSNEAALTKTENLDFRLSFNKIKVTTDQNHFSGGTSIEQLKQWFGDPNKSEQRNAGNITLDSYTWVKDGAVINAQLYKNSTVARSISNFSFSREAKIGKEDYDELKIGESYKKIVEKLGEPDVLSQSMSSDKEEMQTVWSSGIKTKSSSATIELYFENGLLKNKTQKDLE	soluble
MEGVDPAVEEAAFVADDVSNIIKESIDAVLQNQQYSEAKVSQWTSSCLEHCIKRLTALNKPFKYVVTCIIMQKNGAGLHTAASCWWDSTTDGSRTVRWENKSMYCICTVFGLAI	soluble
ETVIMKYLLPTAAAGLLLLAAQPAMAQVKLQQSGAELVRSGTSVKLSCTASGFNIKDSYMHWLRQGPEQGLEWIGWIDPENGDTEYAPKFQGKATFTTDTSSNTAYLQLSSLTSEDTAVYYCNEGTPTGPYYFDYWGQGTTVTVSSGGGGSGGGGSGGGGSENVLTQSPAIMSASPGEKVTITCSASSSVSYMHWFQQKPGTSPKLWIYSTSNLASGVPARFSGSGSGTSYSLTISRMEAEDAATYYCQQRSSYPLTFGAGTKLELKRAAAEQKLISEEDLN	soluble
MGSDKIHHHHHHMKNNRINIHSQQYMETMARLMSEALESPEGMRALAAAIAAPIEQEIKRKEISSLLLTRHTLPKGERPIYQKKPTVKAHWISKDGEAQEQELGKDEVEFPTNRIHSNPMVDISVLKHGNIGTLMDIQTGAASSIRKEMDSRTITVISSAIPAANTVEVTGDKVTEEALNEAISIIEDLELSVKYIVLRGRRFNDMRSWNLDPQTKLELRQKGVIKNYGTGGILLTAAMPMDEIIIVPDEEVGKLPVRENLKTESIDQKTRFKTGWLVWSEIGQGITRPDILAKVKLVP	not soluble
MGSDKIHHHHHHMSELITTGVDIGSGCIKTVVFKVNGDKVEWLGKETSRIRNRDPFQLTTETYNHMLKSAGVDAKDVAYVASTGDAENLSFATGHFYSMTTHGRGGLYLNPEARAVLDIGALNGRAIRMDGVGKVLSYKMTSQCASGSGQFLENIARYLGIAQDEIGSLSMKADDPEKVSSICAVLAETDVINMVSRGISASNILKGIHVSMAVRLAKLLKSIGAVDGIVQVTGGLALDTGLVAALNEAAEQEKVNLKAVSHPDSIYAGAIGAALWGAFRHEKLARLGQAA	not soluble
